Experimental data published in IntAct's records for PubMed 12681510.

B1: Rho guanine nucleotide exchange factor 1 (Homo sapiens), Q92888 (parent)
chain: MEDFARGAASPGPSRPGLVPVSIIGAEDEDFENELETNSEEQNSQFQSLEQVKRRPAHLMALLQHVALQFEPGPLLCCLHADMLGSLGPKEAKKAFLDFYHSFLEKTAVLRVPVPPNVAFELDRTRADLISEDVQRRFVQEVVQSQQVAVGRQLEDFRSKRLMGMTPWEQELAQLEAWVGRDRASYEARERHVAERLLMHLEEMQHTISTDEEKSAAVVNAIGLYMRHLGVRTKSGDKKSGRNFFRKKVMGNRRSDEPAKTKKGLSSILDAARWNRGEPQVPDFRHLKAEVDAEKPGATDRKGGVGMPSRDRNIGAPGQDTPGVSLHPLSLDSPDREPGADAPLELGDSSPQGPMSLESLAPPESTDEGAETESPEPGDEGEPGRSGLELEPEEPPGWRELVPPDTLHSLPKSQVKRQEVISELLVTEAAHVRMLRVLHDLFFQPMAECLFFPLEELQNIFPSLDELIEVHSLFLDRLMKRRQESGYLIEEIGDVLLARFDGAEGSWFQKISSRFCSRQSFALEQLKAKQRKDPRFCAFVQEAESRPRCRRLQLKDMIPTEMQRLTKYPLLLQSIGQNTEEPTEREKVELAAECCREILHHVNQAVRDMEDLLRLKDYQRRLDLSHLRQSSDPMLSEFKNLDITKKKLVHEGPLTWRVTKDKAVEVHVLLLDDLLLLLQRQDERLLLKSHSRTLTPTPDGKTMLRPVLRLTSAMTREVATDHKAFYVLFTWDQEAQIYELVAQTVSERKNWCALITETAGSLKVPAPASRPKPRPSPSSTREPLLSSSENGNGGRETSPADARTERILSDLLPFCRPGPEGQLAATALRKVLSLKQLLFPAEEDNGAGPPRDGDGVPGGGPLSPARTQEIQENLLSLEETMKQLEELEEEFCRLRPLLSQLGGNSVPQPGCT

Variants of: B1
Details: with gna13_human GNA13, Q14344
Sequence of gna13_human GNA13, Q14344 (Q14344 whole entry): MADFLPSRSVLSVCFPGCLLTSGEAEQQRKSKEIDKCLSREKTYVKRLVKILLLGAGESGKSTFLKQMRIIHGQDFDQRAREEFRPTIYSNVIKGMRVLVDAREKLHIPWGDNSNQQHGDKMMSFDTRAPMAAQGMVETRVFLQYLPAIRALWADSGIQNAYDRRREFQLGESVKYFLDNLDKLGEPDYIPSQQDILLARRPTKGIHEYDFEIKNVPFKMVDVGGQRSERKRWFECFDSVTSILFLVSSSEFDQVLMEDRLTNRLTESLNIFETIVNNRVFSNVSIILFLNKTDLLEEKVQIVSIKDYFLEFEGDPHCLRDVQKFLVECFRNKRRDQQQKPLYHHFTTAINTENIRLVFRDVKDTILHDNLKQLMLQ

effect of a mutation on the interaction | Variant
decreasing interaction | E27A;E29A

Variants of: B1
Details: with gna13_human GNA13, Q14344
Remark: another data set of the same source

effect of a mutation on the interaction | Variant
decreasing interaction | E27A;E29A
